Test results from patent US10874712B2, “Methods, compounds and compositions for modulating blood brain barrier integrity and re-myelination” (University Health Network, priority 2015, dated 2020).

How the values were obtained:
[1] = test system: splenocytes and lymph node cells of EAE-induced mice; assay: Flow cytometry of splenocytes and lymph node cells of treated EAE mice; type: in vivo, mouse
Procedure: Mice were euthanized at day 10 post-induction of EAE. Freshly isolated spleens and draining caudal lymph nodes (LN) were pressed using a syringe plunger through a 70 μm cell strainers and washed twice using 2 mL of 2% FBS in complete RPMI-1640 medium (Invitrogen) supplemented with […], L-glutamine, p/s, and non-essential amino acids. Single-cell suspensions were lysed with 7 mL of red blood cell (RBC) lysing buffer (Life Technologies) and centrifuged at 700 rcf for 5 mins. After washing three times with 2% RPMI-1640 medium, cells were counted and cultured as described below or were subjected to cell surface staining.
The expression of cell-surface markers and cytokine expression on splenocytes and LN cells were characterized by flow cytometry. For analysis of naïve cells, 5×10^5 RBC depleted splenocytes and LN cells were plated in 96-well V-bottom plates (Starstedt) and blocked with 50 μl of 1% mouse IgG in 2% FBS PBS supplemented with azide (PFN3) for 20 min at 4° C. Cells were then stained with the following primary conjugated antibodies from BioLegend for 30 min on ice: CD5 (53-7.3), CD3 (145-2C11), CD4 (GK1.5), CD8 (53-6.7), CD19 (6D5), CD11b (M1/70), CD11c (N418), CD80 (16-10A1), CD86 (GL-1), CD44 (IM7), MHCII (M5/114.15.12), CD62L (MEL-14), ICAM-1/CD54 (3E2), IL-17A (TC11-18H10.41), IFN-γ (XMG1.2). All antibodies were re-suspended in PFN3. When required, cells were washed twice with 100 μl of PFN3 and stained with secondary SA-APC, SA-APC-Cy7, SA-PeCy7, or SA-Percp-Cy5.5 for 30 min on ice. Cells were then washed twice with PFN3 and re-suspended in a PFN3 solution containing propidium iodide (PI) before proceeding to FACS analysis.
To examine intracellular cytokine production, 0.5×10^6 RBC-depleted splenocytes and LN cells were plated on 96-well flat bottom plates (BD Biosciences) in 10% FBS in complete RPMI-1640 in the presence of 0.5 μg/mL phorbol 12-myrisate 13-acetate (PMA), 0.5 μg/mL Ionomycin, and Golgistop (BD Biosciences) for 4 h. Cells were subsequently washed in PBS and stained with Near-Infrared Live Dead (Life Technologies) as described in the manufacturer's protocol. Cells were then washed twice in PFN3 and stained for cell surface markers as described previously. Cells were then fixed with 100 μl of Cytofix/Cytoperm solution as per manufacturer's protocol. For intracellular staining, cells were then stained with anti-IL-17A, and anti-IFN-γ for 30 min on ice, washed twice, and re-suspended in PFN3 before proceeding to FACS acquisition. Nonspecific background staining was determined by using fluorochrome-matched isotype antibodies and fluorescence minus one control. […] For each experiment, at least 100,000 live events were acquired and analyzed using Flowjo software (Tree Star Inc.).

b.end3 cells = assay: In vitro BBB permeability, Dextran-FITC extravasation in Boyden chamber; type: cell-based, mouse; conditions: b.end3 monolayer; 4 h pre-treatment (10 μg/mL sRGMc, 10 μg/mL C3 Transferase or 10 μM Y27632), then RGMa 18 h
Procedure: (A) Neogenin expression was analyzed on the membrane of b.end3 cells using immunohistochemical staining and by Western blot. (B) Crystal violet staining showing the b.end3 cell monolayer, (C) Representative diagram of the boyden chamber set up and (D) BBB permeability in b.end3 cells. Serum-starved cells were incubated for 4 h with RGMa (10 μg/ml), C3 Transferase (10 μg/mL) or Y27632 (10 μM) or sRGMc (10 μg/mL) and were then incubated with sRGMa (5 μg/mL) for 18 h followed by seeding of Dextran-FITC onto the upper chamber. Extravasation was measured over a period of 60 min as described in the Examples. n=3, performed in triplicates.
b.End3 endothelial cells were used to generate an in vitro model of the human EC barrier lining the choroid plexus. Briefly, b.end3 cells were plated on polyethylene-coated 0.4 μm pore size Boyden chambers (Corning) at a density of 2×10^5 cells per well in DMEM, and were allowed to grow for 72 h to reach confluency (verified using crystal violet staining). After 72 h, cells were serum starved for 6 h and pre-treated for 4 h with 10 μg/mL sRGMc, 10 μg/mL C3 Transferase or 10 μM Y27632. RGMa was then added to the wells for 18 h. The transwells were then transferred to a new plate containing 500 μl of HBSS and 200 μl 4-KDa Dextran-FITC (25 mg/ml; Sigma-Aldrich) was added to the upper chambers. Tracer diffusion across the EC monolayer was assessed in 30 min intervals for a period of 1.5 h. FITC signal, which represented the amount of extravasation through the monolayer was analyzed with using a microplate reader.

EAE-induced mice = assay: In vivo BBB permeability, fibrinogen extravasation in spinal cord; set-up: species or system mouse; conditions: EAE day 18; treated every 3 days; vs vehicle
Procedure: To establish the role of RGMc on BBB permeability, 6-8 week old C57Bl/6 female mice induced with EAE and treated with sRGMc or vehicle (n=6 animals per group) were anesthetized 18 days post induction and trans-cardially perfused with 20 mL PBS followed by 20 mL 4% paraformaldehyde in PBS (PFA) (Electron Microscopy Sciences). Spinal cords were cryo-sectioned at 10 μm thickness and stored at −80° C. The sections were stained for Fibrinogen (Innovative Research); CD31 (Invitrogen); and DAPI (Sigma-Aldrich). All images were obtained using a BX61 confocal microscope (Olympus). CellSens software was used for quantification of cell area and pixel intensity. The area (number of pixels) and fluorescent intensity (mean pixel intensity) of the extravasation markers were measured using CellSens software (Olympus). The relative extent of fluorescent extravasation and BBB disruption was then calculated by multiplying the area with the fluorescent intensity.

B1: sRGMc: truncated form of RGMc with the GPI anchor sequence removed, released as a soluble protein (SEQ ID NOs: 1 and 3) (protein, listed as Homo sapiens)
chain: CKILRCNAEYVSSTLSLRGGGSSGALRGGGGGGRGGGVGSGGLCRALRSYALCTRRTARTCRGDLAFHSAVHGIEDLMIQHNCSRQGPTAPPPPRGPALPGAGSGLPAPDPCDYEGRFSRLHGRPPGFLHCASFGDPHVRSFHHHFHTCRVQGAWPLLDNDFLFVQATSSPMALGANATATRKLTIIFKNMQECIDQKVYQAEVDNLPVAFEDGSINGGDRPGGSSLSIQTANPGNHVEIQAAYIGTTIIIRQTAGQLSFSIKVAEDVAMAFSAEQDLQLCVGGCPPSQRLSRSERNRRGAITIDTARRLCKEGLPVEDAYFHSCVFDVLISGDPNFTVAAQAALEDARAFLPDLEKLH
[1]; PMA and ionomycin stimulated, EAE mice day 10
  expression profile of IL-17 and IFN-γ secreted by CD4+ T cells: no effect
[1]; naive splenocytes and lymph node cells, vs vehicle
  expression of adhesion markers (ICAM-1 and CD62L) on CD4+ and CD8+ T cells and B cells: does not affect
[1]; splenocytes day 10, vs vehicle
  distribution of effector cells (CD3+, CD8+, CD4+ T cells): does not alter
  distributions and activation of dendritic cells (CD11c+) and B cells (MHC II, CD80+/CD86+): unaltered
b.end3 cells
  extravasation of Dextran-FITC in sRGMa-treated cells: reproduced the RhoA/RhoK inhibitor effect
EAE-induced mice
  fibrinogen extravasation: significant decrease
